Results as given in patent US20260062463A1 (KANGYUAN BIOMEDICAL TECH DALIAN, published 2026).
Where a chain is given by its changes, count along the chain named.

B1: A4-C9 (bispecific antibody)
chain: VQLQESGGGLVQPGGSLRLSCAASGSNFSINTMGWYRQAPGKQRELVATVTRGGDTNYADSVKGRFTISRDNAKNTVYLQMNSLRPEDTAVYYCHVDEIRESSWTTSNLWGQGTQVTVSSGGGGSGGGGSGGGGSVQLQESGGGLVQPGGSLRLSCAASGSNFSINTMGWYRQAPGKQRELVAALTRGGSTNYADSVKGRFTISRDNAKNTVYLQMNSLRPEDTAVYYCHVDEVRESSWTTSNLWGQGTQVTVSSGGGGSGGGGSGGGGSVQLQESGGGLVQPGGSLRLSCAASGSNFRINTMGWYRQAPGKQRELVAPVTRGGSTNYADSVKGRFTISRDNAKNTVYLQMNSLRPEDTAVYYCHVDEVRESSWTTSNLWGQGTQVTVSS
B2: A4-C8 (bispecific antibody)
chain: VQLQESGGGLVQPGGSLRLSCAASGSNFRINTMGWYRQAPGKQRELVAPVTRGGSTNYADSVKGRFTISRDNAKNTVYLQMNSLRPEDTAVYYCHVDEVRESSWTTSNLWGQGTQVTVSSGGGGSGGGGSGGGGSVQLQESGGGLVQPGGSLRLSCAASGSNFSINTMGWYRQAPGKQRELVATVTRGGDTNYADSVKGRFTISRDNAKNTVYLQMNSLRPEDTAVYYCHVDEIRESSWTTSNLWGQGTQVTVSSGGGGSGGGGSGGGGSVQLQESGGGLVQPGGSLRLSCAASGSNFSINTMGWYRQAPGKQRELVAALTRGGSTNYADSVKGRFTISRDNAKNTVYLQMNSLRPEDTAVYYCHVDEVRESSWTTSNLWGQGTQVTVSS
B3: A4-C6 (bispecific antibody)
chain: B2 chain with T184A, V185L, D190S, I234V, A319T, L320V, S325D, V369I
B4: A4-C7 (bispecific antibody)
chain: B1 chain with S164R, A184P, L185V, N297S, R299T, P319A, D330G, V347I, V369I, E371Q
B5: A4-C5 (bispecific antibody)
chain: B2 chain with P49T, A73P, S299R, A319T, L320V, A343P
B6: A4-C1 (VHH)
chain: VQLQESGGGLVQPGGSLRLSCAASGSGFSINTMGWYRQAPGKQRELVATVTRDGSTNYADFVKGRFTISRDNAKNTVYLQMNSLRPEDTAVYYCHLDEVRESSWTTSNLWGQGTQVTVSSGGGGSGGGGSGGGGSVQLQESGGGLVQPGGSLRLSCAASGSGFSINTMGWYRQAPGKQRELVATVTRDGSTNYADFVKGRFTISRDNAKNTVYLQMNSLRPEDTAVYYCHLDEVRESSWTTSNLWGQGTQVTVSSGGGGSGGGGSGGGGSVQLQESGGGLVQPGGSLRLSCAASGSGFSINTMGWYRQAPGKQRELVATVTRDGSTNYADFVKGRFTISRDNAKNTVYLQMNSLRPEDTAVYYCHLDEVRESSWTTSNLWGQGTQVTVSS
B7: A4-C2 (VHH)
chain: VQLQESGGGLVQPGGSLRLSCAASGSAFSINTMGWYRQAPGKQRELVASVTPGGSTNYADSVKGRFTISRDNAKNTIYLQMNSLRPEDTAVYYCHLDEVRESSWTTSNLWGQGTQVTVSSGGGGSGGGGSGGGGSVQLQESGGGLVQPGGSLRLSCAASGSAFSINTMGWYRQAPGKQRELVASVTPGGSTNYADSVKGRFTISRDNAKNTIYLQMNSLRPEDTAVYYCHLDEVRESSWTTSNLWGQGTQVTVSSGGGGSGGGGSGGGGSVQLQESGGGLVQPGGSLRLSCAASGSAFSINTMGWYRQAPGKQRELVASVTPGGSTNYADSVKGRFTISRDNAKNTIYLQMNSLRPEDTAVYYCHLDEVRESSWTTSNLWGQGTQVTVSS
B8: A4-D4 (VHH)
chain: VQLQESGGGLAQAGGSLRLSCAASGRGFSINTMGWYRQAPGKQRELVAAVTRGGTTNYADSVKGRFTISRDNAKNTVYLQMNSLRPEDTAVYYCHVDEVRQSSWTTSNLWGQGTQVTVSSGGGGSGGGGSGGGGSVQLQESGGGLVQPGGSLRLSCAASGRGFSINTMGWYRQAPGKQRELVAAVTRGGTTNYADSVKGRFTISRDNAKNTVYLQMNSLRPEDTAVYYCHVDEVRQSSWTTSNLWGQGTQVTVSSGGGGSGGGGSGGGGSVQLQESGGGLAQAGGSLRLSCAASGRGFSINTMGWYRQAPGKQRELVAAVTRGGTTNYADSVKGRFTISRDNAKNTVYLQMNSLRPEDTAVYYCHVDEVRQSSWTTSNLWGQGTQVTVSSGGGGSGGGGSGGGGSVQLQESGGGLAQAGGSLRLSCAASGRGFSINTMGWYRQAPGKQRELVAAVTRGGTTNYADSVKGRFTISRDNAKNTVYLQMNSLRPEDTAVYYCHVDEVRQSSWTTSNLWGQGTQVTVSS
B9: A4-C4 (bispecific antibody)
chain: VQLQESGGGLVQAGGSLRLSCAASGSRFSINTMGWYRQAPGKQREFVATVTRGGNTNYAESVKGRFTISRDNAKNTVYLQMNSLRPEDTAVYYCHVDEVRDSSWTTSNIWGQGTQVTVSSGGGGSGGGGSGGGGSVQLQESGGGLVQAGGSLRLSCAASGSRFSINTMGWYRQAPGKQREFVATVTRGGNTNYAESVKGRFTISRDNAKNTVYLQMNSLRPEDTAVYYCHVDEVRDSSWTTSNIWGQGTQVTVSSGGGGSGGGGSGGGGSVQLQESGGGLVQPGGSLRLSCAASGSNFRINTMGWYRQAPGKQRELVATVTRGGSTNYADSVKGRFTISRDNPKDTVYLQMNSLRPEDTAVYYCHVDEVRESSWTTSNLWGQGTQVTVSS
B10: A4-B2 (bispecific antibody)
chain: VQLQESGGGLVQAGGSLRLSCAASGSRFSINTMGWYRQAPGKQREFVATVTRGGNTNYAESVKGRFTISRDNAKNTVYLQMNSLRPEDTAVYYCHVDEVRDSSWTTSNIWGQGTQVTVSSGGGGSGGGGSGGGGSVQLQESGGGLVQAGGSLRLSCAASGSTFSINTMGWYRQAPGKQRELVATITRGGNTNYADSVKGRFTISRDNAKNTVYLQMNSLRPEDTAVYYCHVDEVRQSSWTTSNLWGQGTQVTVSS

Columns and labels:
Experiment in all cases: SPR, AAV amine-coupled to CM5 chip
AAV9 = biological target: T1, AAV9 (adeno-associated virus 9, Assembled 60-mer capsid of VP1/VP2/VP3 (nested products of one cap gene), amine-coupled to a CM5 chip; the letters give one VP1 subunit only.)
T1 construct: also called adeno-associated virus serotype 9

AAV8 = biological target: T2, AAV8 (adeno-associated virus 8, Assembled 60-mer capsid of VP1/VP2/VP3 (nested products of one cap gene), amine-coupled to a CM5 chip; the letters give one VP1 subunit only.)
T2 construct: also called adeno-associated virus serotype 8
T2 chain: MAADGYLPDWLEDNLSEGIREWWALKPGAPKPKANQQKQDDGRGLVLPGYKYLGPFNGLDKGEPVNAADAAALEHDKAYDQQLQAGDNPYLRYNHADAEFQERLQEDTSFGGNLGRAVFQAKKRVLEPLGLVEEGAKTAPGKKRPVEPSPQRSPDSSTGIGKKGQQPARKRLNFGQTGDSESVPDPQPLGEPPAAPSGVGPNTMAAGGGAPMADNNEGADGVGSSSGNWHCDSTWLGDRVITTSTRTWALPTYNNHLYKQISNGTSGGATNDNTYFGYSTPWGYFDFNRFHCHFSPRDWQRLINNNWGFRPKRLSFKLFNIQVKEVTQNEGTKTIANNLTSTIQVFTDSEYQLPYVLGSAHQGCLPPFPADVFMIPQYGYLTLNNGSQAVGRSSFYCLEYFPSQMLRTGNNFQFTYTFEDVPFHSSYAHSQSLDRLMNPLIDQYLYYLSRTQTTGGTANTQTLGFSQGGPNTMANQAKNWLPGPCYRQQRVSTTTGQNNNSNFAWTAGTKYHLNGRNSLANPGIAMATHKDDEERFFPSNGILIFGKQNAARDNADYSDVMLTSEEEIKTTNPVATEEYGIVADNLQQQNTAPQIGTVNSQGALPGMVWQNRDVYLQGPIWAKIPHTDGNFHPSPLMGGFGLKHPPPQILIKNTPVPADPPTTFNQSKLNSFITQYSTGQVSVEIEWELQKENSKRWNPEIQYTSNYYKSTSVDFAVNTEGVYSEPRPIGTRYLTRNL

AAV5 = biological target: T3, AAV5 (adeno-associated virus 5, Assembled 60-mer capsid of VP1/VP2/VP3 (nested products of one cap gene), amine-coupled to a CM5 chip; the letters give one VP1 subunit only.)
T3 construct: also called adeno-associated virus serotype 5

Row | Binder | Kd (AAV9) [nM] | koff (AAV9) [s⁻¹] | kon (AAV9) [M⁻¹ s⁻¹] | Kd (AAV8) [nM] | koff (AAV8) [s⁻¹] | kon (AAV8) [M⁻¹ s⁻¹] | Kd (AAV5) [nM] | koff (AAV5) [s⁻¹] | kon (AAV5) [M⁻¹ s⁻¹]
1 | B1 | 0.669 | 0.00013 | 194000 | 1.14 | 0.00013 | 114000 | 0.777 | 5e-05 | 64300
2 | B2 | 0.279 | 5e-05 | 179000 | 2.81 | 0.00037 | 132000 | 0.69 | 0.00013 | 188000
3 | B3 | 0.55 | 2.5e-05 | 45400 | 2.67 | 0.00044 | 165000 | 0.785 | 0.000139 | 177000
4 | B4 | 0.127 | 1.75e-05 | 137000 | 3.7 | 0.00047 | 127000 | 0.0732 | 3.2e-05 | 437000
5 | B5 | 1.68 | 0.0002 | 119000 | 4.97 | 0.00091 | 183000 | 7.86 | 0.0013 | 165000
6 | B6 | ≤ 1.03 | ≤ 1e-05 | 9690 | 9.2 | 0.00164 | 178000 | 13.2 | 0.00138 | 104000
7 | B7 | 0.486 | 0.000125 | 257000 | 0.359 | 5e-05 | 139000 | 0.691 | 0.000134 | 194000
8 | B8 |  |  |  |  |  |  | 0.657 | 1.73e-05 | 26300
9 | B9 | 1.87 | 0.00031 | 165000 | 2.36 | 0.00025 | 106000 | 6.72 | 0.00121 | 180000
10 | B10 | 8.35 | 0.0008 | 95800 | 1.02 | 0.00014 | 138000 | 7.38 | 0.00117 | 159000
